In publication doi:10.1101/2024.07.16.603632:

Target: fluorescently labeled isolated Grb2 C-SH3 domain
Experiment: fluorescence polarisation; fluorescence anisotropy; PTP1B titrated into a solution of N-terminally fluorophore-labelled Grb2 construct; N = 2–4 independent titrations

Kd | Binder
62 µM | PTP1B^1−321 (wild-type protein tyrosine phosphatase 1B, residues 1-321) (domain or fragment) MEMEKEFEQIDKSGSWAAIYQDIRHEASDFPCRVAKLPKNKNRNRYRDVSPFDHSRIKLHQEDNDYINASLIKMEEAQRSYILTQGPLPNTCGHFWEMVWEQKSRGVVMLNRVMEKGSLKCAQYWPQKEEKEMIFEDTNLKLTLISEDIKSYYTVRQLELENLTTQETREILHFHYTTWPDFGVPESPASFLNFLFKVRESGSLSPEHGPVVVHCSAGIGRSGTFCLADTCLLLMDKRKDPSSVDIKKVLLEMRKFRMGLIQTADQLRFSYLAVIEGAKFIMGDSSVQDQWKELSHEDLEPPPEHIPPPPRPPKRILEPHN
82.4 µM | PTP1B^1−401 (domain or fragment) MEMEKEFEQIDKSGSWAAIYQDIRHEASDFPCRVAKLPKNKNRNRYRDVSPFDHSRIKLHQEDNDYINASLIKMEEAQRSYILTQGPLPNTCGHFWEMVWEQKSRGVVMLNRVMEKGSLKCAQYWPQKEEKEMIFEDTNLKLTLISEDIKSYYTVRQLELENLTTQETREILHFHYTTWPDFGVPESPASFLNFLFKVRESGSLSPEHGPVVVHCSAGIGRSGTFCLADTCLLLMDKRKDPSSVDIKKVLLEMRKFRMGLIQTADQLRFSYLAVIEGAKFIMGDSSVQDQWKELSHEDLEPPPEHIPPPPRPPKRILEPHNGKCREFFPNHQWVKEETQEDKDCPIKEEKGSPLNAAPYGIESMSQDTEVRSRVVGGSLRGAQAASPAKGEPSLPEKDEDH
